Two molecules from patent publication US20240293553A1 (BETH ISRAEL DEACONESS MEDICAL CENTER, published 2024) can be followed below.

Square brackets hold non-standard residues; d marks the D form. Side chains are listed from the residue outwards. Ends that are not written are not given here. mPEG 40 kDa (SVA) = 40 kDa methoxy poly(ethylene glycol) succinimidyl valerate (mPEG-SVA); triazole linker = not defined here; Fs = not defined here

By IC50 is commonly meant the concentration that gives 50% inhibition. A low value points to higher potency. As a reminder, the Kd is the constant that tells how readily two partners part at equilibrium.

Test [1] concerns the target T1, human P-selectin-Ig chimera (human, UniProt P16109 42-771).
T1 construct: No source is stated for the chimera used on the microarray and in SPR; also called P-Sel-Ig; P-sel-Ig
The test can be described thus: flow cytometry competition: inhibition of human P-selectin-Fc chimera (3 µg/mL) binding to human monocytes. Background: In flow cytometry, cells or beads pass a laser one at a time.

Test [2] has as its target T1, human P-selectin-Ig chimera. The test can be described thus: flow cytometry competition: inhibition of human P-selectin-Fc chimera (3 µg/mL) binding to human neutrophils.
Test [3] addresses T2, murine P-selectin-Fc chimera (murine, UniProt Q01102 42-709).
T2 construct: Bought from R&D Systems; also called mouse P-selectin chimera; species-specific P-selectin-Fc chimera; not shown: Fc part
T2 sequence (looked up): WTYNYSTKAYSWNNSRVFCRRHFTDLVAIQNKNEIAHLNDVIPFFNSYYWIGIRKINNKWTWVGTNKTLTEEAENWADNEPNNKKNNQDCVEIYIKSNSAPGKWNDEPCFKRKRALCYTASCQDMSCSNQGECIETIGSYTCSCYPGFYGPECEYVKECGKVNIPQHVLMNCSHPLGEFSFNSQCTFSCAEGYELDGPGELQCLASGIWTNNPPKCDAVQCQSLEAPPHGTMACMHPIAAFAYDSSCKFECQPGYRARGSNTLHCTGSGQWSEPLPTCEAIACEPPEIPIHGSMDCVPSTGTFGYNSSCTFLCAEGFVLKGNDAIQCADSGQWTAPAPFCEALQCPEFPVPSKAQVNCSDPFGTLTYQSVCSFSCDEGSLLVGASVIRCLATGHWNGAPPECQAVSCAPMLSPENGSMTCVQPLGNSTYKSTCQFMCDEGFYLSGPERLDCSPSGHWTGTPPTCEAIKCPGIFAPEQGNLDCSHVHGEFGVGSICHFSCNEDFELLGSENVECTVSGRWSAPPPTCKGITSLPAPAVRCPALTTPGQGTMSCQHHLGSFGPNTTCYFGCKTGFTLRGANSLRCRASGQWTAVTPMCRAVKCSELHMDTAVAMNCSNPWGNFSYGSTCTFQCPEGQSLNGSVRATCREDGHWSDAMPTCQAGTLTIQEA
The test can be described thus: flow cytometry competition: inhibition of murine P-selectin-Fc chimera (3 µg/mL) binding to murine monocytes.

Test [4] concerns the target T2, murine P-selectin-Fc chimera. Description: flow cytometry competition: inhibition of murine P-selectin-Fc chimera (3 µg/mL) binding to murine neutrophils.
Test [5] deals with T1, human P-selectin-Ig chimera. The test can be described thus: SPR (Biacore): biotinylated ligand on streptavidin chip, P-selectin-Ig flowed at 0.4-100 nM. A general note: Surface plasmon resonance follows binding to a sensor surface in real time, without labels.
Test [6] shares this target. Description: SPR (Biacore): biotinylated G4 on streptavidin chip, P-sel-Ig flowed at 0.4-100 nM, 1:1 model.

T1 sequence (P16109 42-771, change not shown): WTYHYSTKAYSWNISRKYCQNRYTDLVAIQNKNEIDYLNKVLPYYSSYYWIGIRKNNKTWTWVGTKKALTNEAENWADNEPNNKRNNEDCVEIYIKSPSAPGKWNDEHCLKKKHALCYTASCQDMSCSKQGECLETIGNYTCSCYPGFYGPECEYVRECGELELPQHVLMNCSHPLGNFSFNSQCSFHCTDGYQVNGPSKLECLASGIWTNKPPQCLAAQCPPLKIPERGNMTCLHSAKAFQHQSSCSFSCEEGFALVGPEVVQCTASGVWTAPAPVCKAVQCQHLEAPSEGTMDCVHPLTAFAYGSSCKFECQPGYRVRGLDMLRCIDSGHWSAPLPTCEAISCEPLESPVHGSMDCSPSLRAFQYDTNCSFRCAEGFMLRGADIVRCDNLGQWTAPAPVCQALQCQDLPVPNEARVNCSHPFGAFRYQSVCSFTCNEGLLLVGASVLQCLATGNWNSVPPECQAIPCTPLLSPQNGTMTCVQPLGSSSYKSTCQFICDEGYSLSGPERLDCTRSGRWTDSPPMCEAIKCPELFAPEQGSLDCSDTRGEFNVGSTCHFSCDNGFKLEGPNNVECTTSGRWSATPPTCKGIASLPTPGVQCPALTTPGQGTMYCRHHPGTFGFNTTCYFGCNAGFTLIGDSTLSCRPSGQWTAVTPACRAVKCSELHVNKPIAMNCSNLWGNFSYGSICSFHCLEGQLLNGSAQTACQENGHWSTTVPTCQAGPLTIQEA

B1: PEG40-G4 (P-G4) (peptide)
peptide: {mPEG 40 kDa (SVA)}-KE[Fs]E[Fs]LD[Fs]DFLPET([triazole linker-sLe^x])EPL
modifications: reading uncertain
notes: also called PEG-G4; pegylated click compound
As to B1, the IC50 in test [1] turned out to be 12 µM; in test [2] it was 9 µM; in test [3] it was 6 µM; in test [4], 9 µM.

B2: G4 (peptide)
peptide: KEFEFLDFDFLPETEPL
modifications: not fully specified (residues 3, 5, 8, 14); also: biotinylated for SPR, place not given here
notes: Synthetic glycosulfonopeptide analogue of the N-terminus of PSGL-1; also called compound 1
Take B2: the dissociation constant Kd came to 0.05 µM in test [5] and 0.069 µM in test [6]. Also, the IC50 was determined as 16 µM in test [1], 13 µM in test [2] and 10 µM in test [3].
